Reference: publication doi:10.1101/2021.09.20.461017 (bioRxiv, 2021)

Molecular target: the molecule itself
Assay: crystal structure

B1: ClpP from Bacillus subtilis (BsClpP) (enzyme)
chain: not shown
In the case of B1, the “stoichiometry N” value is reported as 14.
